According to patent US11155612B2, “vNAR antibody which binds VEGF for use in dogs or cats” (CENTRO DE INVESTIGACIÓN CIENTÍFICA Y DE EDUCACIÓN SUPERIOR …, priority 2017, dated 2021):
Numbering of substitutions follows the chain as printed. Numbers in names are those of the source.

B1: P98Y: anti-VEGF vNAR protein, P98Y mutation in CDR3 of parental V13; corresponds to SEQ ID NO:1 (protein)
chain: ASLDQTPRTATRETGESLSINCVLTDTSHILFGTKWLWNNPGSTDWESITIGGRYAESVNNQAKSFSLQIKDLTVEDSGTYYCKAQTIGRRKNLLPRYLVNGIAAMGYSSSDYDGAGTVLTVN
modifications: Artificial sequence against VEGF, with single mutation in the CDR3 region from a parenteral vNAR sequence.
B2: R97A: anti-VEGF vNAR mutant, R97A mutation in CDR3 of parental V13 (protein)
chain: B1 chain with R97A, Y98P

Key:
VEGF165 = molecular target: T1, VEGF165 (Homo sapiens, UniProt P15692); assay: ELISA test recognition; assay type: binding; conditions: ELISA plates coated with VEGF165; compared with parental V13
T1 sequence (P15692 27-191 isoform P15692-4): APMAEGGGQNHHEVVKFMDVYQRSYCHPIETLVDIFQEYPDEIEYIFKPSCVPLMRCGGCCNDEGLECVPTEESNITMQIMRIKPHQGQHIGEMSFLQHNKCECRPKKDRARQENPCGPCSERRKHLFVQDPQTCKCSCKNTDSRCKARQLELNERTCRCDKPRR
Description: Decreasing concentrations of each vNAR were added to measure the recognition of VEGF compared to V13, which is the parental antibody.
ELISA plates were coated with the same amount of VEGF165; then, the wells were blocked with 3% BSA, several dilutions of clones P98Y and R97A, and the parental sequence (V13) were added.

[1] = system: human umbilical vein endothelial cells (HUVEC) expressing GFP and normal human dermal fibroblasts (NHDF); assay: Angiogenesis assay (vascular tube formation, HUVEC/NHDF co-culture); assay type: cell-based; conditions: VEGF 4 ng/ml; vNAR at eight concentrations
Description: In the vascular tube formation assay, a co-culture system of human umbilical vein endothelial cells (HUVEC) expressing GFP and normal human dermal fibroblasts (NHDF) was used. For cell seeding on day 0, one cryogenic vial of NHDF cells was thawed and resuspended in 12 ml of complete seeding medium. Then, 100 μl of this solution was added per well of a 96-well plate. The cells were incubated at room temperature for 1 hour. Then, 1 cryogenic vial of HUVECs was thawed and resuspended in 12 ml of complete seeding medium. HUVEC (100 μL per well) were seeded into the same plate as NHDFs. The cells were incubated at room temperature for another hour. The plate was then examined in an IncuCyte ZOOM and scanned using the “FOIL” scan type. After 24 hours, the culture medium was replaced with 150 μl of growth medium.
Forty-eight hours after seeding, the cells were treated with VEGF at 4 ng/ml and the test compounds at eight concentrations.
Serial dilutions of the compounds were prepared using assay media containing VEGF up to the final concentrations in FIG. 3. Then, 150 μl of medium containing the vNARs were added. In untreated wells, media without VEGF were added. For wells without compound, media with VEGF was added. […]
The formation of vessel tubes by fluorescently-labeled HUVECs was measured using live-cell imaging, and the effects of the vNARs on this process were assessed.

[2] = system: Murine Lewis lung cancer cell lines; assay: VEGF inhibition in vivo, ND-GFP nude mice with Lewis lung cancer footpad implant; conditions: for capillary growth around the tumor (vessel density): 27 μg vNAR i.p. twice per week, 6 doses over 18 days, vs untreated controls; for Normalized tumor weight / reduction of the tumor (weight), statistical significance: after day 18, 27 μg vNAR i.p., 6 doses; for Normalized tumor weight: n=8, PBS = 1.0 (100%); for reduction of the tumor (weight), statistical significance: vs PBS
Description: In vivo tests were conducted at AntiCancer, Inc. (San Diego, Calif., USA) in accordance with its protocols for handling animals approved under Assurance #A3873-1, and also approved by the Bioethics Committee of the Center for Scientific Research and Higher Education of Ensenada, Baja California (CICESE), approval number 2014/03. In order to minimize the suffering of the animals, anesthesia and analgesics were used for all surgical experiments. Animals were anesthetized by subcutaneous injection of a solution of 0.02 ml of ketamine 20 mg/kg, 15.1 mg/kg xylazine, and 0.48 mg/kg of acepromazine maleate. Animals responses during surgery were monitored to ensure adequate depth of anesthesia. The animals were observed daily and humanely sacrificed through CO2 inhalation when they met the following endpoint criteria: severe tumor burden (more than 20 mm in diameter), prostration, significant body weight loss, difficulty breathing, rotational motion, and body temperature drop. Animals were housed in a barrier facility, on a high-efficiency particulate arrestance-filtered rack under standard conditions of light/dark cycles of 12 hours. Animals were fed an autoclaved laboratory rodent diet. Eight nestin-driven GFP (ND-GFP) mice were used [Amoh Y, Yang M, Li L, Reynoso J, Bouvet M, Moossa A R, Katsuoka K, Hoffman R M. Nestin-driven green fluorescent protein transgenic nude mouse for imaging human tumor angiogenesis. Cancer Res. 2005; 65: 5352-5357], individuals from 6 to 10 weeks old were used per group. ND-GFP mice expressed GFP in nascent blood vessels. Murine Lewis lung cancer cell lines, stably transfected with red fluorescent protein (RFP) were used for implantation of foot cancer cells in the plantar pad (5×10^5 cells in 25 μl). The treatment began 3 days after implantation of cancer cells. All vNARs were administered intraperitoneally (i.p.) twice per week for a total of 6 doses over 18 days; each administration contained 27 μg of VNAR in 180 μl of PBS. After day 18, the implanted footpad of the mice in each group was imaged for GFP-expressing blood vessels. The vessel density was calculated as the total length of the blood vessels divided by the observed area. Each individual tumor was collected and, the weighed (g).

Molecule	recognition of VEGF (VEGF165)	inhibition of angiogenesis (tube length and network branching) [1]	capillary growth around the tumor (vessel density) [2]	Normalized tumor weight [2]	reduction of the tumor (weight), statistical significance [2]	reduction of the tumor (weight), statistical significance ([2]; listed as SEQ ID NO:1)
B1	greater recognition of VEGF than the parental	especially potent inhibitors of angiogenesis	reduced capillary growth around the tumor	0.71	statistically significant reduction of the tumor	allows reducing the size of the tumor masses
B2	–	–	comparable with parental v13 VNAR	0.76	–	–
